Source: article PMC12723728

Substrate: C[S+](CC[C@H](N)C(=O)O)C[C@H]1O[C@@H](n2cnc3c(N)ncnc32)[C@H](O)[C@@H]1O
Test: purified protein
Details: co-substrate mGpppAmC RNA 1 μM; 100 nM enzyme; SAM 0.5-6 μM; labelled compound

B1: CMTR2 (Homo sapiens) (protein)
chain: MSKCRKTPVQQLASPASFSPDILADIFELFAKNFSYGKPLNNEWQLPDPSEIFTCDHTELNAFLDLKNSLNEVKNLLSDKKLDEWHEHTAFTNKAGKIISHVRKSVNAELCTQAWCKFHEILCSFPLIPQEAFQNGKLNSLHLCEAPGAFIASLNHYLKSHRFPCHWSWVANTLNPYHEANDDLMMIMDDRLIANTLHWWYFGPDNTGDIMTLKFLTGLQNFISSMATVHLVTADGSFDCQGNPGEQEALVSSLHYCEVVTALTTLGNGGSFVLKMFTMFEHCSINLMYLLNCCFDQVHVFKPATSKAGNSEVYVVCLHYKGREAIHPLLSKMTLNFGTEMKRKALFPHHVIPDSFLKRHEECCVFFHKYQLETISENIRLFECMGKAEQEKLNNLRDCAIQYFMQKFQLKHLSRNNWLVKKSSIGCSTNTKWFGQRNKYFKTYNERKMLEALSWKDKVAKGYFNSWAEEHGVYHPGQSSILEGTASNLECHLWHILEGKKLPKVKCSPFCNGEILKTLNEAIEKSLGGAFNLDSKFRPKQQYSCSCHVFSEELIFSELCSLTECLQDEQVVVPSNQIKCLLVGFSTLRNIKMHIPLEVRLLESAELTTFSCSLLHDGDPTYQRLFLDCLLHSLRELHTGDVMILPVLSCFTRFMAGLIFVLHSCFRFITFVCPTSSDPLRTCAVLLCVGYQDLPNPVFRYLQSVNELLSTLLNSDSPQQVLQFVPMEVLLKGALLDFLWDLNAAIAKRHLHFIIQREREEIINSLQLQN
K0.5: 1.3 ± 0.1 µM
kcat: 3.4 ± 0.4 h⁻¹
